In patent US20260176346A1:

Target: recombinant human VEGF (R&D Systems, 293-VE-010) (human) (UniProt P15692)
Test: Octet HTX biosensor (BLI); positive control antibody at 10 ug/mL in 1x kinetics buffer; recombinant human VEGF in 1:2 series, 200 nM to 3.125 nM

Sequence of UniProt P15692 (P15692 other isoform, or with tags, fused parts or gaps limits assumed): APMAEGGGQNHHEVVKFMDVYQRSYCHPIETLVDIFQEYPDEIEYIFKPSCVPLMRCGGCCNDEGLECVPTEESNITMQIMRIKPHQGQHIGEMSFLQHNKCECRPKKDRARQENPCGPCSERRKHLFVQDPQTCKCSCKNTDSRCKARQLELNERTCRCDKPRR

- Kd: 0.229 nM
- koff: 7.77e-05 s⁻¹
- kon: 340000 M⁻¹ s⁻¹
Substance: mouse anti-human VEGF monoclonal antibody (anti-hVEGF MmAb; R&D Systems, MAB293-100)
